In patent US7947873:

Experiments:
Assay in all cases: cell_activity
[1] = test system: AGMT8-C1 ZFP-TF (Artificial); conditions: control 1.00; napin promoter; effective activator in leaf, not in seed per p274
[2] = test system: CGMT4-C1 ZFP-TF (Artificial); conditions: control 39.9; napin promoter, transgenic canola
[3] = test system: AGMT5-C1 ZFP-TF (Artificial); conditions: control 1.00; napin promoter, transgenic Arabidopsis
[4] = test system: AGMT10-C1 ZFP-TF (Artificial); conditions: control 1.00; napin promoter; effective activator in leaf
[5] = test system: AGMT9-C1 ZFP-TF (Artificial); conditions: control 1.00; napin promoter, transgenic Arabidopsis
[6] = test system: CGMT6-C1 ZFP-TF (Artificial); conditions: control 39.9; napin promoter, transgenic canola
[7] = test system: CGMT12-C1 ZFP-TF (Artificial); conditions: control 39.9; napin promoter, transgenic canola
[8] = test system: CGMT3-C1 ZFP-TF (Artificial); conditions: control 39.9; napin promoter, transgenic canola
[9] = test system: AGMT7-C1 ZFP-TF (Artificial); conditions: control 1.00; napin promoter; 35S promoter 1.69; 5-fold GMT mRNA increase in leaf protoplasts (p271)
[10] = test system: CGMT10-C1 ZFP-TF (Artificial); conditions: control 39.9; napin promoter, transgenic canola
[11] = test system: CGMT9-C1 ZFP-TF (Artificial); conditions: control 39.9; napin promoter, transgenic canola
[12] = test system: AGMT6-C1 ZFP-TF (Artificial); conditions: control 1.00; napin promoter, transgenic Arabidopsis

GAAGAGGGTG (double strand) [ZFP C / AGMT8 target]
activity (% alpha-tocopherol in T2 seed) [1]: 1.57

GAGGAAGAT (double strand) [CGMT4 target]
activity (% alpha-tocopherol in R1 seed) [2]: 51.9

GAGGAAGGGG (double strand) [ZFP A / AGMT5 target]
activity (% alpha-tocopherol in T2 seed) [3]: 4.45

GAGGAGGAGG (double strand) [ZFP E / AGMT10 target]
activity (% alpha-tocopherol in T2 seed) [4]: 2.86

GAGGAGGATG (double strand) [ZFP D / AGMT9 target]
activity (% alpha-tocopherol in T2 seed) [5]: 2.31

GAGGTTGGA (double strand) [CGMT6 target]
activity (% alpha-tocopherol in R1 seed) [6]: 59.6

GAGGTTGGC (double strand) [CGMT12 target]
activity (% alpha-tocopherol in R1 seed) [7]: 64.5

GATGCTGGT (double strand) [CGMT3 target]
activity (% alpha-tocopherol in R1 seed) [8]: 46.6

GGGGAAAGGG (double strand) [ZFP B / AGMT7 target]
activity (% alpha-tocopherol in T2 seed) [9]: 5.95

GTAGAGGAC (double strand) [CGMT10 target]
activity (% alpha-tocopherol in R1 seed) [10]: 54.2

TAGTTGGAA (double strand) [CGMT9 target]
activity (% alpha-tocopherol in R1 seed) [11]: 46.2

TGGGTAGTC (double strand) [AGMT6 target]
activity (% alpha-tocopherol in T2 seed) [12]: 1.74
